Assay [1] deals with peripheral blood lymphocytes (PBL) of myasthenia gravis patients. The settings on record: 96 h.
Procedure: Peripheral blood lymphocytes (PBL) of myasthenia gravis patients and of the appropriate control donors (2×10^5 cells/well) were assayed in microtiter plates in 0.2 ml enriched medium containing 10% autologous serum, in the presence of different doses of the peptides p195-212 and the analog 207Ala for 96 h, followed by an overnight pulse with 0.5 μCi of ^3 H-thymidine. Cells were harvested and radioactivity determined. Inhibition of the proliferative responses was done by adding different doses of 207Ala into the incubation mixture at the same time as the pathogenic peptide p195-212.
In assay [2] the target is p195-212 presented by antigen-presenting cells of MG patients (HLA class II) (human).
In assay [3] the target is p259-271 presented by antigen-presenting cells of MG patients (HLA class II) (human).
The target of assay [4] is MHC class II of SJL mice (on antigen presenting cells).
For assay [5] the target is unchanged. Description: flow cytometry, biotinylated peptide on SJL antigen presenting cells, PE-streptavidin. (In general: In flow cytometry, cells or beads pass a laser one at a time.)
Assay [6] has as its target MHC class II on human antigen presenting cells.
The target in assay [7] is MHC Class II molecules of BALB/c mice (on syngeneic spleen cells used as antigen-presenting cells).
The target is the same in assay [8]. The source holds these as a separate data set.
Assay [9] has the same target. This is another data set of the same source.

Where no end group is shown, it is not given here. The star is where a group is joined. Biotin = O=C1N[C@H]2[C@H](CS[C@H]2CCCCC(=O)*)N1; Ahx = NCCCCCC(=O)O

Procedure for T cell line TCSJL195-212: T cell lines and clones specific to p195-212 were established from lymph node cells of high (SJL) responder mouse strain by the method described by Brocke et al. (1990a), supra, and designated TCSJL195-212 line (Mozes, E. et al. (1991), supra; see also Kirshner et al. (1994), supra).
Cells (10^4 per well) of the T cell Line TCSJL195-212 or TCBALB/c259-271 were incubated in the presence of irradiated syngeneic spleen cells (0.5×10^6), either p195-212 or p259-271 (10 μM) and various concentrations of the dual epitope analogs 207Ala-262Lys or 262Lys-207Ala for 48 h. Thereafter, ^3 H-thymidine was added and 16 h later plates we harvested.

As to DTPYLDITYHFVAQRLPL [207Ala], the “inhibition of the proliferative response of the TCSJL195-212 line to p195-212” value in the assay with T cell line TCSJL195-212 is “more than 99%”. Also, the “inhibition of proliferative responses of PBL, all three patients” value in assay [1] is 77-100%.

On to “peripheral blood lymphocytes (PBL) of myasthenia gravis patients (cells without a defined receptor)”, for which the proliferative response of PBL, stimulation index (SI) (stimulation index) in [2] was 6.3; in assay [3], 4.1.

B1: 207Ala analog of p195-212 (peptide)
peptide: DTPYLDITYHFVAQRLPL
Turning to B1, in assay [4], the inhibition of the p195-212 specific proliferative response of TCSJL195-212 is over 99 % inhibition.

B2: biotinylated dual analog 262Lys-207Ala (peptide)
peptide: {Biotin-Ahx}-VIVKLIPSTSSAVDTPYLDITYHFVAQRLPL
B2: the fold affinity against 207Ala-262Lys in assay [5] came to 10 fold.

B3: 266Asp analog of p259-271 (peptide)
peptide: VIVELIPDTSSAV
The molecule B3 yielded a % inhibition of the p259-271 induced proliferative response of PBL (three MG patients) in [6] of 85.6 % inhibition.

B4: 262Asp analog of p259-271 (peptide)
peptide: VIVDLIPSTSSAV
On to B4, for which the % inhibition of the p259-271 induced proliferative response of PBL (three MG patients) in [6] was found to be 78 % inhibition.

B5: 262Lys analog of p259-271 (peptide)
peptide: VIVKLIPSTSSAV
On to B5, for which the % of inhibition of the p259-271 specific proliferative response of TCBALB/c259-271 in [7] is under 93 % inhibition. The same molecule displayed an inhibition of the proliferative response of lymph node cells of p259-271 immunized BALB/c mice to p259-271 in [8] of under 64.7 % inhibition. In addition, the % inhibition of the p259-271 induced proliferative response of PBL (three MG patients) in [6] came to 100 % inhibition. This molecule also returned an inhibition of the helper activity of TCBALB/c259-271 (p259-271 specific antibody production) in assay [9] of under 80 % inhibition.
